Test results from publication PMC9133542, “Development of Novel CD47-Specific ADCs Possessing High Potency Against Non-Small Cell Lung Cancer in vitro and in vivo” (Frontiers in Oncology, 2022).

B1: 7DC4-VCMMAE (7DC4 conjugated with maleimidocaproyl-valine-citrulline-monomethyl auristatin E) (antibody, V domains shown)
VH: QVQLKQSGAELVQPGASVKLSCKASGYTFTNYYMYWLRQRPGQGLEWIGEINPSNGGTDFNEKFKSKATLTVDKSSSTAFMQLSSLTSDDSAVYYCARGGFTMDYWGQGTTVTVSS
VL: DVVMTQTPLSLPVSLGDQASISCRSSQSLVHSNGNTYLHWYLQKPGQSPKLLIYKVSNRFSGVPDRFSGSGSGTDFTLKISRVEAEDLGVYFCSQSTHVPLTFGAGTKLELK
notes: as the heavy chain of m2 (mouse Fab part); human IgG1 Fc fragment; as the light chain of m2; Antibody-drug conjugate of m2; drug distribution 2, 4, 6 and 8 per antibody; also called 7DC4-CVMMAE; 7DC4-MMAE; source: 7DC4 from Expi293, reduced with TCEP, conjugated with VCMMAE, purified (Amicon-30 kDa); copies: 2 + 2
B2: 7DC4 monoclonal antibody (chimeric anti-human CD47, mouse Fab plus human IgG1 Fc) (antibody, V domains shown)
VH: B1 VH
VL: B1 VL
notes: human IgG1 Fc fragment; mouse light chain of 7DC4; Chimeric IgG1; also called 7DC4 mAb; 7CD4; source: Expi293, transfected with light and heavy chain plasmids, purified; copies: 2 + 2
B3: 7DC2-VCMMAE (7DC2 conjugated with maleimidocaproyl-valine-citrulline-monomethyl auristatin E) (antibody, V domains shown)
VH: QVQLQQSGPELVKPGASVKMSCKASGYTFTNYFMHWVKQKPGQGLEWIGYINPYNDGTKYNEKFKGKATLTSDKSSSTAYMELSSLTSEDSAVYYCTKGGRYSMDYWGQGTTLTVSS
VL: DVVMTQTPLSLPVRLGDEVSISCRSSQTIVFTNGNTYLEWYLQKPGQSPKLLIYKVSNRFSGVPDRFSGSGSGTDFTLTISRVEAEDLGIYYCFQGSHVPYTFGGGTKLELK
notes: as the heavy chain of m1 (mouse Fab part); human IgG1 Fc fragment; as the light chain of m1; Antibody-drug conjugate of m1; drug distribution 2, 4, 6 and 8 per antibody; also called 7DC-VCMMAE; source: 7DC2 from Expi293, reduced with TCEP, conjugated with VCMMAE, purified (Amicon-30 kDa); copies: 2 + 2
B4: 7DC2 monoclonal antibody (chimeric anti-human CD47, mouse Fab plus human IgG1 Fc) (antibody, V domains shown)
VH: B3 VH
VL: B3 VL
notes: human IgG1 Fc fragment; mouse light chain of 7DC2; Chimeric IgG1; also called 7DC2 mAb; 7CD2; source: Expi293, transfected with light and heavy chain plasmids, purified; copies: 2 + 2

Legend:
[1] = biological target: T1, CD47/ECD (Gln 19 - Pro 139, His Tag, ACROBiosystems) (Homo sapiens, UniProt Q08722-3); experiment: ELISA; CD47/ECD coated (0.2 ug per well, PBS pH 7.4, 16 h at 4°C), blocked with 2% BSA in PBST; IgG titrated at 11 two-fold dilutions in PBST with 0.5% BSA, 1 h; detected with HRP/anti-human IgG conjugate; EC50 by ED50 Plus v1.0; n = 3; settings: both partners purified
T1 construct: also called CD47 antigen; CD47/ECD antigen; source: bought: ACROBiosystems (expressed from human 293 cells, HEK293)

[2] = biological target: CD47 on the cell membrane of human lung cancer cell lines A549, SPC-A-1 and 95D (Homo sapiens, UniProt Q08722); experiment: cell-based or functional assay
Chain of CD47 on the cell membrane of human lung cancer cell lines A549, SPC-A-1 and 95D (Q08722 19-323): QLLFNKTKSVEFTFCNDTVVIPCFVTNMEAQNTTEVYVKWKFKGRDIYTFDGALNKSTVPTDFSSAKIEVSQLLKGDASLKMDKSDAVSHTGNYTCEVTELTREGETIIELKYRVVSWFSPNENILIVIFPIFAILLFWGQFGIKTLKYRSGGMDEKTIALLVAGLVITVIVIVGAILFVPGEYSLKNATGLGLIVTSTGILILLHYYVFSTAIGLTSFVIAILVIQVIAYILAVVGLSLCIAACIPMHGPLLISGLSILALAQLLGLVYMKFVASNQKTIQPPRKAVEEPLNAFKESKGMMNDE

T1 sequence (Q08722 19-139): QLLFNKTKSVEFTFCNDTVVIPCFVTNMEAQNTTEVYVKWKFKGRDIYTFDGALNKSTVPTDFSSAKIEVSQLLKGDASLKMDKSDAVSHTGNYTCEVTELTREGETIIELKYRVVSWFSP

Binder | EC50 [1] [nM] | IC50 of cytotoxicity on 95D cells (relative cell viability, WST-1; 0.064-40 nM) [2] [nM]
B1 | 0.13 | ~40
B2 | 0.13 | –
B3 | 0.15 | ~40
B4 | 0.15 | –
